Data on four molecules can be found in patent US20220387586A1 (Hoffmann-La Roche, published 2022).

Assay [1] deals with T1, biotinylated-Lag3 (UniProt P18627 23-450, limits assumed, biotinylated).
T1 construct: Probably a human LAG3 ECD construct; also called Lag3 (MHCII/ELISA)
T1 sequence (looked up): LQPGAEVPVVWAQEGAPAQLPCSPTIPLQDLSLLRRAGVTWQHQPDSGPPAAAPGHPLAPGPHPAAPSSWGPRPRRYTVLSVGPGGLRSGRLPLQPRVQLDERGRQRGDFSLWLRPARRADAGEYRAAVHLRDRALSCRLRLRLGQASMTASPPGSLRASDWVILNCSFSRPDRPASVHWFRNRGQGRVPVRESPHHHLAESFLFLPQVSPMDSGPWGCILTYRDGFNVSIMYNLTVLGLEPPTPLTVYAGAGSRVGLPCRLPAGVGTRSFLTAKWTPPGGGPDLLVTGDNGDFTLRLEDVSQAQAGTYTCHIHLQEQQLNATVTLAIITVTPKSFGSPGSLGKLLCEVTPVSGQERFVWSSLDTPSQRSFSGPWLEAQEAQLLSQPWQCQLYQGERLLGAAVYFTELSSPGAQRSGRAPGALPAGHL
The assay is described as follows: ELISA, inhibition of biotinylated-Lag3 binding to MHC-II on A375 cells (competitor MHC-II); first of two numbers. A general note: ELISA stands for enzyme-linked immunosorbent assay.

For assay [2], the target named is T1, biotinylated-Lag3. The assay is described as follows: ELISA, inhibition of biotinylated-Lag3 binding to MHC-II on A375 cells (competitor MHC-II); second of two numbers.
The target of assay [3] is T2, human Fc tagged human Lag3 extra cellular domain (human, UniProt P18627 29-450, biotinylated in the epitope binning, the SA CAP SPR and the FACS competition assay).
T2 construct: In-house fusion; also called huLag3-Fc; biotinylated, huFc-tagged huLag3; not shown: human Fc tag
T2 sequence: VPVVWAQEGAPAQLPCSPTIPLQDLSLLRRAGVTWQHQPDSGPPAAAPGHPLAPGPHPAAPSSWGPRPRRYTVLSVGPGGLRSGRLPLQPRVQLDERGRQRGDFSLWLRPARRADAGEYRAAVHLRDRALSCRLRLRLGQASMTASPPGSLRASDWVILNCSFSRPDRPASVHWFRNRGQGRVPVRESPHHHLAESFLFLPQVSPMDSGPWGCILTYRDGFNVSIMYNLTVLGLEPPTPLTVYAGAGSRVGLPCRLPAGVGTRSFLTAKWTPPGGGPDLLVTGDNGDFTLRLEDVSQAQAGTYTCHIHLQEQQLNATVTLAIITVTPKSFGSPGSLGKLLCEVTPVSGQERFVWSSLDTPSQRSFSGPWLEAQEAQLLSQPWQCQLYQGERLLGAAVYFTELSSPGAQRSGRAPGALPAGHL
The experiment in a line: FACS, inhibition of biotinylated Lag3:Fc binding to MHC-II on A375 cells (competitor MHC-II); antibody 10 µg/ml. As for the experimental part:
This analysis was studied in a FACS competition experiment: A375 cells (ATCC, #CRL-1619) were cultured for 2-3 passages in EM Eagle's medium supplemented with EBSS (PAN, cat.no. #P04-00509), 10% FBS, 2 mM L-Glutamin, 1×NEAA and 1× Sodium Pyruvate. All antibodies, were diluted in FACS buffer to a final concentration of 20 μg/ml in 25 μl (in 96well U-bottom plates). […] A375 cells were washed with PBS and adjusted to 3×10⁶ cells/ml in PBS. 100 μl were seeded per well in a 96well V-bottom plate. Plates were centrifuged and supernatant was removed. […] After this, cells were washed with 200 μl FACS buffer. […] After staining, cells were again washed and then transferred in 150 μl FACS buffer (PBS/2% FBS) to a U-bottom plate and analyzed on a FACS Canto-II using an HTS module.
All antibodies were used at 10 μg/ml final concentration.

For assay [4], the target named is T2, human Fc tagged human Lag3 extra …. The experiment in a line: SPR (Biacore T200), huLag3-Fc captured, antibody Fab fragment as analyte, 25 °C, 1:1 Langmuir fit; monovalent (first value line); bivalent line is tbd. The procedure: (§1) Therefore two flow cells of a C1 biosensor chip were prepared in a Biacore T200 by immobilizing neutravidin, diluted to 25 μg/ml in acetate buffer pH 4.5, onto it using the ‘immobilization wizard’. […] Then, CaptureSelect™ Biotin Anti-IgG-Fc (Human) Conjugate was bound to the neutravidin, using a 20 μg/ml dilution in running buffer (HBS-EP+, GE Healthcare).
(§2) The method itself consisted of four commands per cycle. […] Second command: sample injection for 120s followed by a 1200s long dissociation at a flow speed of 30 μl/min. Third and fourth command: regeneration by injecting Glycine-HCl pH 1.5 for 30 seconds.
Background: Surface plasmon resonance follows binding to a sensor surface in real time, without labels.

Assay [5] has the same target. The experiment in a line: SPR (Biacore T200), huLag3-Fc captured, antibody Fab fragment as analyte, 25 °C. As for the experimental part: as §1, §2
For assay [6] the target is unchanged. The assay is described as follows: SPR (Biacore T200), huLag3-Fc captured, antibody Fab fragment as analyte, 25 °C, 1:1 Langmuir fit. The procedure:
as §1, §2

Assay [7] addresses T3, hu PD1-ECD (human, UniProt Q15116 25-170).
T3 construct: SPR analyte; also called human PD1-ECD
The assay is described as follows: SPR; row head 'Affinity KD 37° C.'; first of two numbers; first of the two numbers in the cell, row head 37° C.

Assay [8] addresses T3, hu PD1-ECD. The assay is described as follows: SPR; row head 'Affinity KD 37° C.'; second of two numbers, equal to the 25 °C value of Table 3; second of the two numbers in the cell; only 37° C. is printed, split not explained. As for the experimental part:
(§3) The samples were injected for 20 seconds with a concentration of 10 nM and bound to the second flow cell.

The target in assay [9] is T4, biotinylated PD1-ECD-AviHis (human, UniProt Q15116 25-170, biotinylated).
T4 construct: also called huPD1; hu PD1; not shown: Avi-His tag
T4 sequence (Q15116 25-170): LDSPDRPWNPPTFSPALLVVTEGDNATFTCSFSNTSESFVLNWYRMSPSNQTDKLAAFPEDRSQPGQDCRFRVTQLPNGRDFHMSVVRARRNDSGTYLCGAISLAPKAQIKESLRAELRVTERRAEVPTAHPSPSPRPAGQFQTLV
The assay is described as follows: ELISA (hu PD1, as described above). The procedure: After washing (3×90 μl/well with PBST-buffer) 25 μl/well goat-anti-human H+L-POD (JIR, JIR109-036-088)/Sheep-anti-mouse-POD (GE Healthcare; NA9310) was added in 1:2000/1:1000 dilution and incubated at RT for 1 h on shaker. After washing (3×90 μl/well with PBST-buffer) 25 μl/well TMB substrate (Roche Catalogue No. 11835033001) was added and incubated until OD 2-3. Measurement took place at 370/492 nm.

For assay [10], the target named is T3, hu PD1-ECD. The assay is described as follows: SPR (Biacore T200), antibody captured by anti-human IgG, hu PD1-ECD as analyte, 25 °C, 1:1 Langmuir fit. The procedure: Therefore, an anti-human IgG was immobilized by amine coupling to the surface of a (Biacore) CM5 sensor chip. […] The sensor chip surface was regenerated after each analysis cycle. The equilibrium constant and kinetic rate constants were finally gained by fitting the data to a 1:1 langmuir interaction model.
as §3
Finally the double referenced data was fitted to a 1:1 Langmuir interaction model with the Biacore T200 Evaluation Software.

Assay [11] has as its target T4, biotinylated PD1-ECD-AviHis. The experiment in a line: ligand replacing ELISA; row head 'IC50 PD-L1, 2 [nM]' (ligand not told apart); competing ligand printed only as 'PD-L1, 2'.

T3 sequence (Q15116 25-170 limits assumed): as the sequence (Q15116 25-170) above

B1: Reference MDX26H10 (antibody, V domains shown)
VH: QVQLVESGGGVVQPGRSLRLSCAASGFTFSSYGMHWVRQAPGKGLEWVAVIWYDGSNKYYADSVKGRFTISRDNSKNTLYLQMNSLRAEDTAVYYCAREWAVASWDYGMDVWGQGTTVTVSS
VL: not shown
notes: also called MDX-26H10 (26H10); aLAG3(MDX26H10)
The term IC50 denotes the concentration needed to halve the response being measured. Read a high IC50 as weaker potency. What is called % Inhibition is the relative decrease from the control value, in per cent. Lower therefore signals a weak effect. Take B1: the IC50 with biotinylated-Lag3 [1] worked out at 0.9 nM; with biotinylated-Lag3 [2], 0.6 nM. Also, the “% Inhibition” value in [3] amounted to 71.7%.

B2: aLAG3(0414) Fab fragment (Fab, V domains shown)
VH: EVQLLESGGGLVQPGGSLRLSCAASGFIFDDYTMNWVRQAPGKGLEWVAVISWDGGGTYYTDSVKGRFTISRDDFKNTLYLQMNSLRAEDTAVYYCAKGLTDTTLYGSDYWGQGTLVTVSS
VL: DIQMTQSPSSLSASVGDRVTITCRASQSISSYLNWYQQKPGKAPKLLIYAASTLQSGVPSRFSGSGSGTDFTLTISSLQPEDFATYYCQQTYSSPLTFGGGTKVEIK
The koff is the rate constant with which the complex falls apart. Higher therefore signals fast dissociation. As to B2, the Kd in assay [4] is 0.463 nM. For the same molecule, the koff in [5] was 0.000195 s⁻¹.

B3: aLAG3(0416) Fab fragment (Fab, V domains shown)
VH: EVQLVESGGGLVQPGGSLRLACAASGFTFSDYAMSWVRQAPGKGLEWVSGIDNSGYYTYYTDSVKGRFTISRDDVKNTLYLQMNSLRAEDTAVYLCTKTHSGLIVNDAFDIWGQGTMVTVSS
VL: DIQLTQSPSSLSASVGDRVTITCRASQSISSYLNWYQQKPGKAPKLLIYDASSLESGVPSRFSGSGSGTDATLTISSLQPEDFATYYCQQSYSTPLTFGGGTKVEIK
The molecule B3 came in with a Kd in [6] of 0.0282 nM. For the same molecule, the koff in assay [5] was 0.000221 s⁻¹.

B4: chimeric PD1-0103 (antibody, human IgG1, V domains shown)
VH: EVILVESGGGLVKPGGSLKLSCAASGFSFSSYTMSWVRQTPEKRLDWVATISGGGRDIYYPDSVKGRFTISRDNAKNTLYLEMSSLMSEDTALYYCVLLTGRVYFALDSWGQGTSVTVSS
VL: KIVLTQSPASLPVSLGQRATISCRASESVDTSDNSFIHWYQQRPGQSPKLLIYRSSTLESGVPARFSGSGSRTDFTLTIDPVEADDVATYYCQQNYDVPWTFGGGTKLEIK
notes: also called chiPD1-0103
For orientation: EC50 means the concentration giving half of the maximal effect. For orientation: kon means a measure of how fast the partners come together. Low readings indicate slower complex formation, high ones faster complex formation. As for B4, the Kd with hu PD1-ECD [7] is 2 nM. Also, the Kd with hu PD1-ECD [8] worked out at 0.8 nM. Moreover, the EC50 in assay [9] stood at 0.2 nM. In addition, in the assay with hu PD1-ECD [10], the Kd is 0.8 nM, the koff was found to be 0.000307 s⁻¹ and the kon came out at 386000 M⁻¹ s⁻¹. The same molecule had an IC50 in assay [11] of 1.35 nM.
